Measured values: the supplement of paper PMC12042874
± gives the uncertainty stated by the source.

assay: amyloid nucleation score (Sup35N fusion, yeast selection) (log enrichment); library NNK2; higher = more nucleation; inactive = no reads after selection
In short: (§1)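 Using DiMSum, nucleation scores were taken as the log enrichment of output over input reads, centred on the mode score of non-aggregating sequences. The input and output reads came from Illumina sequencing of plasmid inserts, with sequences under 100 input reads excluded. The yeast were psi-negative, expressed Sup35N fused to peptides of 20 random codons, were induced with 100 μM copper sulfate for 24 hours, and were grown 7 days at 30°C on medium lacking adenine and uracil.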

Row | Substance | amyloid nucleation score
1 | LTLLR | -0.122 ± 0.42
2 | ASLLGQKSAVGILRIHSKLY | -0.573 ± 1.1
3 | QNGRMSTHTDFGGM | 0.39 ± 0.38
4 | RRSDKLAVLWYSDKRMARWS | -0.582 ± 0.33
5 | RTVQQIAPVGGHERVKC | -0.175 ± 0.26
6 | MDNTWNLCDSFYSCSGDLNT | -0.595 ± 0.35
7 | KCWLLGHWEDFCTLSKMERN | inactive
8 | WYNCSALWESLMFNGLQAVW | -0.268 ± 0.48
9 | YFRISTWRFRTRHLGPCERG | 5.708 ± 0.054
10 | GLDITIGEA | -0.522 ± 0.63
11 | CVWHVF | inactive
12 | TLVLFGTLISMLQL | 6.24 ± 0.073
13 | WSLYLVVLAQ | 0.294 ± 0.51
14 | NSLVLPDLAYLGCKMNLNFS | 3.94 ± 0.074
15 | IDDCVKGKTPGNSGNMFCLP | -1.06 ± 0.42
16 | KVRDCIMPRCRGRVCICNYG | -0.29 ± 0.25
17 | IFNVRRVLHFIIYVSDIPLD | -1.89 ± 0.78
18 | LFNVMLCMP | 4.17 ± 0.048
19 | FLVFVLLGDR | 6.23 ± 0.07
20 | LGIKRNQI | -0.812 ± 0.45
21 | MDIFRYVCNCYKSSNKKVFG | -1.25 ± 0.78
22 | YSRVQSRPMCKLRKALHWRV | 1.31 ± 0.25
23 | RQLHLVLNRVGWMLWYTH | 0.684 ± 0.26
24 | ARFILFVALFWKFLY | 0.431 ± 0.46

Row | Substance | amyloid nucleation score
25 | YWSCTMRVFRVTLNCSNS | 3.44 ± 0.066
26 | MAACCHKLWLTCFDTVRMFN | -0.478 ± 0.41
27 | YLFVQEKKRVFRYFRWRHPV | -0.032 ± 0.8
28 | HDIVRIALHYQQRVVCAWSC | 0.713 ± 0.24
29 | DFLVYCGLLEQLWLLSDAKC | -0.356 ± 1.1
30 | LFMPGSFFDIFE | -2.05 ± 0.78
31 | LRLARKRVECFVLLADFNNR | 0.306 ± 0.53
32 | DFSMIGSEKVAPGKNPDASL | 0.22 ± 0.57
33 | VFSPFQFNFWWSFCVNFALV | 4.367 ± 0.035
34 | NSMPATIYFMRSPDIGFSV | 2.81 ± 0.16
35 | NLQRFSQPKIHRPNTMPLNV | inactive
36 | SDNAEGVSANFFVRPILSVF | -1.47 ± 1.1
37 | HRRCMFQNTAMRHRQWDA | 0.841 ± 0.44
38 | VKLVCSDFKMACTSSSMSVD | 0.861 ± 0.24
39 | NIAMSDMDILLMQRAQKWLR | 1.1 ± 0.54
40 | VVVNYVFPLSEFMLISDAKC | 0.833 ± 0.8
41 | RLRVVEPGNACWGQMLG | 0.165 ± 1
42 | SSSRS | 0.66 ± 0.62
43 | GAWFQTYWLWCEYMAFIQKL | 1.86 ± 0.17
44 | SVLSLFWLFTDFLVVSHDIL | -0.784 ± 1.1
45 | ITQRHSVNLNMMSLDLYTSS | 0.295 ± 1
46 | KLNLGGCLMSRVYC | 0.345 ± 0.16
47 | YHGVLSFLII | 1.29 ± 0.36
48 | SKPCGKVIYWKDRLSKLSEK | inactive

Row | Substance | amyloid nucleation score
49 | YDNTEASGLSWRTLLQGAVW | 0.562 ± 0.45
50 | KNNSFWGISLTGLLGYIYTR | -0.627 ± 1
51 | KLHQNSKGCPGVLPVDGLKM | 0.82 ± 0.56
52 | ITMSQNSWNFRHDGTLVGLK | 0.377 ± 0.3
53 | NNINLTYRLYSVLDHYKLYE | 2.66 ± 0.088
54 | ARSMVMHYFWGSTLAPESKF | -0.801 ± 0.45
55 | VNLTSFYLITDCTLNGQQWR | 8.654 ± 0.052
56 | HLSTSGYVAFLKHLTLCKVL | -0.347 ± 1.1
57 | TAKHDYFLSEESRRLYSSKY | 2.31 ± 0.063
58 | AYIARYNPTSLNRVEYPPDD | 1.49 ± 0.58
59 | FNSRL | -0.208 ± 1
60 | MLPIRRIMQQFHGKPYNCYT | inactive
61 | ARVIECLHGRN | -0.147 ± 0.44
62 | SSYNCPHINVCSPSAPNTQM | inactive
63 | MVHMGGDDMCCGIVVWTQAP | 11.85 ± 0.066
64 | SVRHCLSLSSM | inactive
65 | FVHFMRVAASRNTNFYNLLW | inactive
66 | YWSETCLSMGENEHFNSWKI | inactive
67 | KFCSRVFSQCMSYLSCLLDF | 0.17 ± 0.74
68 | LTDNS | 0.147 ± 0.61
69 | LCNSTNSESIIVLDITALTH | 0.405 ± 0.51
70 | VMSNFFVLRNGCWPMGRG | 6.124 ± 0.049
71 | YVYVDYWICTIWCVLCNLCS | 0.256 ± 1
72 | RSAFHCNWLISISSGKVSHM | -0.452 ± 0.55

Row | Substance | amyloid nucleation score
73 | LWFQVTFDRICLQITTHTEL | 4.86 ± 0.075
74 | LIRVYRKVGLVTLLHGMNRM | 0.039 ± 0.32
75 | KLKCHMSESLKWIGAVKSRR | 0.776 ± 0.43
76 | KTFTPSIELGYMGHCDCDT | -1.03 ± 0.45
77 | LRVVIHPVRNAGCLGKYGAN | -0.509 ± 0.33
78 | VLRIRLQAGEGKRCE | 4.878 ± 0.044
79 | VMVCGTFANKLRLPVSIELT | 0.534 ± 0.28
80 | IVYWSSEWRKPGAHDTLD | 0.451 ± 0.24
81 | DDSHLNCDNRIVISMLRNGN | 0.528 ± 0.32
82 | STELYARMVKCCVGIADYTD | 0.491 ± 0.66
83 | GLDCIVSINRVQLTSAGLIE | 0.382 ± 0.47
84 | IDGYIQGFHGIRLEQLGGVE | 0.152 ± 0.48
85 | SVYHLRLI | -0.494 ± 0.42
86 | DAVFGTCSLFCRTCAKASFG | 1.58 ± 0.25
87 | GETVGFKARFMLMHTSFLLR | 4.902 ± 0.045
88 | WFLGMGKFHRRAWAARLFMV | 2.45 ± 0.12
89 | LSFFGRDDLNRLHN | -1.41 ± 1.1
90 | LNVGIFNLLTSSGFMGTIRR | 4.39 ± 0.045
91 | WGKLRGIPAYDYSLTGCLYV | 0.647 ± 0.8
92 | VMAILCTNARQLEDSLRQVE | 0.452 ± 0.43
93 | FDLAMGVSLVKRLRLVLCLS | -1.12 ± 0.64
94 | HYFRIAIL | -0.667 ± 0.45

assay: amyloid nucleation score (Sup35N fusion, yeast selection) (log enrichment); library NNK1; higher = more nucleation; inactive = no reads after selection
In short: as §1

Row | Substance | amyloid nucleation score
95 | VIIYLMARSLKVAH | 0.453 ± 0.38
96 | STKWLFGKNGVSLYLLSRRR | 2.58 ± 0.13
97 | DYSSSFVNCIYKKPGQGMFG | 0.133 ± 0.54
98 | FSDNRASPESKPQCVTGRRD | 0.669 ± 0.31
99 | LRTLPHYNV | 0.596 ± 1.2
100 | VNEREPYNCCFMRFDTCTSP | 1.31 ± 0.63
101 | LYYNFKF | 0.321 ± 0.33
102 | RLSVVDELLCVLILGFRCYT | 0.372 ± 1.4
103 | INIAMVMPLDGKLIQIDDTC | 0.177 ± 0.31
104 | IVRQYANLGRCCRTGVVYFQ | 0.386 ± 0.63
105 | GALSNSSMWFGMYVNPLGTY | inactive
106 | HFASRLMRKEFAVRFLRGFS | -0.608 ± 1.2
107 | MWAIFSLWVCSR | 1.35 ± 0.41
108 | YRNLGGLLGIELINIMLLLW | -0.429 ± 0.93
109 | GFTTMEDCGPREGPTIVDDK | -0.149 ± 1.3
110 | LCGTSGCSIRNLV | 0.026 ± 0.46
111 | RVYMFLARFGRESGWSVRQW | 0.169 ± 1
112 | QMNGWVCCFSQGQRMFVLLM | 0.977 ± 0.47
113 | PVNLGSDVYYNVRSQCGSMY | -0.218 ± 0.23
114 | NEPHWSLLRF | -0.535 ± 0.65
115 | LFTIMMQPMGCHPCRPLASQ | 0.082 ± 0.52
116 | RLFLVEFIWNMR | 0.958 ± 0.71
117 | RYCVHIWRCDSLNHHN | 0.349 ± 0.41
118 | NVSVENLGYTLSIPSSMICS | 0.319 ± 0.23
119 | ALLCFLWCRMYGTFSTSCVL | 0.315 ± 0.85
120 | GKIYWLLLQTDKDRRFLTMR | -0.744 ± 0.46
121 | CWQSGMCNRSRMQAVRVPHD | 0.698 ± 0.56
122 | RWMELMALSRKTPGRQKARC | -0.745 ± 1.5
123 | VIILPGGVCMMVC | 0.843 ± 0.41

assay: amyloid nucleation score (Sup35N fusion, yeast selection) (log enrichment); library NNK3; higher = more nucleation; inactive = no reads after selection
In short: as §1

Row | Substance | amyloid nucleation score
124 | LTLLR | inactive
